Test results published in patent publication US20100227414A1, “Affinity capture mass spectroscopy with a porous silicon biosensor” (Trex Enterprises Corp., priority 2009, published 2010).

Molecular target: extra-cellular receptor for interleukin 34 (Homo sapiens, UniProt P07333)
Assay: NPOI flow cell label-free binding with fraction collection (AC-MS)
Source text: The first embodiment is sketched in FIG. 3. The NPOI flow cell instrument is used together with a fraction collector. This fraction collector could simply be a collection vessel of some sort. Initially capture molecule is placed on the porous silicon chip using a typical flow cell procedure. A carboxyl chip shown at 214 in FIG. 2, used for amino coupling, is used. This contains both a sample and reference channel 220 and 221. Using the AutoPrep 200 and two 6-port, 2-position injection valves, one for the sample 210 and one for the reference 211, solutions are introduced to the flow cell. Initially the chip is activated using water as running buffer, pumped by two separate pumps one for sample 212 and one for reference 213, at 8 μL/min. A solution of 200 mM, 1-ethyl-3-(3-dimethylaminopropyl) carbodiimide (EDC) and 50 mM sufo N-hydroxysuccinimide (sNHS) is used to activate the chip for 8 minutes. Then a solution of 20 μg/mL capture molecule is introduced in pH 5.0, 40 mM acetate buffer (1-1,000 μg/mL concentration may also be used). […] The chip is now ready for binding. […]
A specific example of such an approach is shown in FIG. 8 which is a print of a monitor display showing Mascot Search Results. […] The resulting data was analyzed using Mascot and a customized human protein database (810) show the successful identification of IL34.

Chain of extra-cellular receptor for interleukin 34 (P07333 20-517 limits assumed): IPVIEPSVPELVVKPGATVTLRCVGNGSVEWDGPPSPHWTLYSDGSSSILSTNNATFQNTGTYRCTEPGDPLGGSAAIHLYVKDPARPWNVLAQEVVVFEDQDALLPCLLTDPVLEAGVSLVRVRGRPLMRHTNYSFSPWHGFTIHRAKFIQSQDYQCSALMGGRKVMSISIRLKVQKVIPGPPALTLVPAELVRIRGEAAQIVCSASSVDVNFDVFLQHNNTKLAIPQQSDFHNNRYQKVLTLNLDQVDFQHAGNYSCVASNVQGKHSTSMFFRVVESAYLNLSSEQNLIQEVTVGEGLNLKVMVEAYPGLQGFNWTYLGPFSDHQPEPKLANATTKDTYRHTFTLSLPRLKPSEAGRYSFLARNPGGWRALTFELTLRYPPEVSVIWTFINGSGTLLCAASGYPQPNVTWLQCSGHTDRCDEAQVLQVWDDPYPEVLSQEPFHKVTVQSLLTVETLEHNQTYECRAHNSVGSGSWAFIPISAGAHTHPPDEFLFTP

B1: Interleukin 34 (protein, UniProt Q6ZMJ4 21-242, looked up)
Interleukin-34: NEPLEMWPLTQNEECTVTGFLRDKLQYRSRLQYMKHYFPINYKISVPYEGVFRIANVTRLQRAQVSERELRYLWVLVSLSATESVQDVLLEGHPSWKYLQEVETLLLNVQQGLTDVEVSPKVESVLSLLNAPGPNLKLVRPKALLDNCFRVMELLYCSCCKQSSVLNWQDCEVPSPQSCSPEPSLQYAATQLYPPPPWSPSSPPHSTGSVRPVRAQGEGLLP
notes: Interleukin 34 (the analyte) doped into spent cell culture media
IL34 100 ng/mL in spent cell culture media, 50 μL, between 0 and 240 seconds, receptor immobilized at 100 μg/mL
  change in OPD (label-free binding signal): 0.7 nm
Almost complete capture of the material introduced
  amount captured on chip corresponding to OPD change: 5 ng
